From paper PMC4309369 (Cell reports, 2014)
Numbering of substitutions follows the chain as printed. Numbers in names are those of the source.

B1: GST-tagged MTDH (364–582) (domain or fragment, human, UniProt Q86UE4 364-582, looked up)
chain: YQWDVSRNQPYIDDEWSGLNGLSSADPNSDWNAPAEEWGNWVDEERASLLKSQEPIPDDQKVSDDDKEKGEGALPTGKSKKKKKKKKKQGEDNSTAQDTEELEKEIREDLPVNTSKTRPKQEKAFSLKTISTSDPAEVLVKNSQPIKTLPPATSTEPSVILSKSDSDKSSSQVPPILQETDKSKSNTKQNSVPPSQTKSETSWESPKQIKKKKKARRET
B2: GST-tagged MTDH (364–582) D389R (domain or fragment, human, UniProt Q86UE4 364-582, looked up)
chain: B1 chain with D26R
B3: GST-tagged MTDH (364–582) E400A (domain or fragment, human, UniProt Q86UE4 364-582, looked up)
chain: B1 chain with E37A
B4: GST-tagged MTDH (364–582) E400R (domain or fragment, human, UniProt Q86UE4 364-582, looked up)
chain: B1 chain with E37R
B5: GST-tagged MTDH (364–582) N395A (domain or fragment, human, UniProt Q86UE4 364-582, looked up)
chain: B1 chain with N32A
B6: GST-tagged MTDH (364–582) N403A (domain or fragment, human, UniProt Q86UE4 364-582, looked up)
chain: B1 chain with N40A

Columns and labels:
[1] = target: T1, SND1 SN1/2 domains (16–339) (human, UniProt Q7KZF4 16-339); assay: ITC
T1 sequence (looked up): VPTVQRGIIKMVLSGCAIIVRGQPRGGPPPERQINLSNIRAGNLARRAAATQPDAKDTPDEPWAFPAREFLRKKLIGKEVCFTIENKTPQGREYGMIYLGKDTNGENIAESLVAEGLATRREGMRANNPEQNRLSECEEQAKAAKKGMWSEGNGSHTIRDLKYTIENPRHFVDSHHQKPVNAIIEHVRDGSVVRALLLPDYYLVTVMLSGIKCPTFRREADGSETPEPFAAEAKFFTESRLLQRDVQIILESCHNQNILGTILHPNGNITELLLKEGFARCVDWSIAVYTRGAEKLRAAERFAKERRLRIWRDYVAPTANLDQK

SND1 (16–339) R324E = target: T2, SND1 (16–339) R324E (human, UniProt Q7KZF4 16-339, R324E); assay: pull-down
T2 sequence (looked up): T1 sequence (looked up) with R309E

SND1 (16–339) R324A = target: T3, SND1 (16–339) R324A (human, UniProt Q7KZF4 16-339, R324A); assay: pull-down
T3 sequence (looked up): T1 sequence (looked up) with R309A

SND1 (16–339) R316E = target: T4, SND1 (16–339) R316E (human, UniProt Q7KZF4 16-339, R316E); assay: pull-down
T4 sequence (looked up): T1 sequence (looked up) with R301E

[2] = target: T1, SND1 SN1/2 domains (16–339); assay: pull-down
[3] = target: T1, SND1 SN1/2 domains (16–339); assay: crystal structure

| Binder | binding result [2] | further results |
| --- | --- | --- |
| B1 | – | Kd [1]: ~600 nM; binding result (SND1 (16–339) R324E): binds; binding result (SND1 (16–339) R324A): binds; binding result (SND1 (16–339) R316E): binds |
| B2 | binds | – |
| B3 | binds | – |
| B4 | binds | – |
| B5 | binds | – |
| B6 | binds | – |
| SSADPNSDWNAPAEEWGNWVDE (peptide, UniProt Q86UE4 386-407, looked up) [MTDH (386–407)] | – | binding result [3]: binds |
